Reference: patent publication US20250223354A1 (BIOTHEUS, published 2025)

What was measured:
[1] = target: T1, biotin-labeled TIGIT protein (co-binding ELISA) (human, UniProt Q495A1 22-141, biotin-labeled (site not stated)); assay: co-binding (sandwich) ELISA: coated human PVRIG protein, antibody titrated, detected with biotin-labeled TIGIT protein 1 ug/mL and SA-HRP, absorbance 450 nm
T1 construct: Whole entry named; also called human TIGIT protein
T1 sequence (looked up): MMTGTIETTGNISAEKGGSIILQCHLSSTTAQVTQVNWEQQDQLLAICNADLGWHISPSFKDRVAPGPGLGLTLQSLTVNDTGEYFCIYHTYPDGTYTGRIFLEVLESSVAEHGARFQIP

[2] = target: T2, cynomolgus PVRIG overexpressed on CHO cells (cynomolgus, UniProt A0A2K5WVV8 1-322); assay: flow cytometry, CHO-cynoPVRIG cells
T2 construct: whole, on cells; also called CHO-cynoPVRIG cells
T2 sequence: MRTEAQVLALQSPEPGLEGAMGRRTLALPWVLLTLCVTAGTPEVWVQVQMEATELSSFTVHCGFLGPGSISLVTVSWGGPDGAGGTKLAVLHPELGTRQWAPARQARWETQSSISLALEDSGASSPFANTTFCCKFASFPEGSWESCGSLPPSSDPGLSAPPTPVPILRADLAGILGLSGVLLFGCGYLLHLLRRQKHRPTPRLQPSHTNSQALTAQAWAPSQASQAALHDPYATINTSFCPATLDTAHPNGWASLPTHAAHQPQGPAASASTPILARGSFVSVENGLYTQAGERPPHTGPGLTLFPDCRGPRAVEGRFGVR
Experimental: (§1) The overexpressing cells were expanded and adjusted to an appropriate cell density, and added to a 96-well flow cytometry plate. After centrifugation, the cells were added with a gradiently diluted sample to be tested, and incubated at 4° C. for 30 minutes. The cells were washed twice with PBS, and added with a fluorescent secondary antibody correspondingly diluted to an appropriate concentration, then incubated at 4° C. for 30 minutes, and washed twice with PBS. Cells were resuspended with PBS, and detected on a CytoFlex flow cytometer, and the corresponding MFI was calculated. Graphpad software was used for graphical analysis to obtain EC₅₀ values.

human PVRIG-his protein = target: T3, human PVRIG-his protein (human, UniProt Q6DKI7 41-171, limits assumed); assay: BLI (ForteBio), antibody on AHQ sensor, 100 nM antigen, monovalent, 1:1 model
T3 construct: not shown: his tag
T3 sequence: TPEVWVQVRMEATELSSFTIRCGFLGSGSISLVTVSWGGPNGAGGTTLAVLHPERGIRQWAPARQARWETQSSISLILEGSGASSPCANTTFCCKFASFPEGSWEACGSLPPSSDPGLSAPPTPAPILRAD
Experimental: (§2) The antibody-loaded sensor was incubated in 100 nM target antigen to the plateau phase, and then the sensor was transferred to an analysis buffer and incubated for at least 2 minutes for measuring dissociation rate. The kinetic analysis was performed using a 1:1 binding model.

[3] = target: T4, human PVRIG protein with mouse IgG2a Fc tag (human; mouse, UniProt Q6DKI7 41-171, limits assumed); assay: flow cytometry, competition: human PVRIG-mouse IgG2a Fc (1 ug/mL) binding to CHO-huCD112 cells
T4 construct: Whole entry named; not shown: mouse IgG2a Fc tag
T4 sequence (looked up): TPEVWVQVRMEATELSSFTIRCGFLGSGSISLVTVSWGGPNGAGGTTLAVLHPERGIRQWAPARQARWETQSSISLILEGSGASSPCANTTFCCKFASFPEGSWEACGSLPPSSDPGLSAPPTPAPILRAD
Experimental: Specifically, CHO cells overexpressing human CD112 (CHO-huCD112 cells) were generated by transfection of the pCHO1.0 vector (purchased from Invitrogen) with cDNA encoding human CD112 cloned into the multiple cloning site (MCS), followed by pressure screening. […] APC-conjugated goat anti-mouse IgG antibody diluted 100-fold with PBS was added at 100 μL/well, incubated at 4° C. for 30 minutes and washed twice with PBS. Cells were resuspended with PBS at 100 μL/well, and detected on a CytoFlex flow cytometer, and the corresponding MFI was calculated.

[4] = target: T5, human PVRIG expressed on cells (human, UniProt Q6DKI7 41-326); assay: flow cytometry, CHO-huPVRIG cells
T5 construct: whole, on cells; cDNA encoding human PVRIG in pCHO1.0 for CHO cells; also called CHO-huPVRIG cells
T5 sequence (looked up): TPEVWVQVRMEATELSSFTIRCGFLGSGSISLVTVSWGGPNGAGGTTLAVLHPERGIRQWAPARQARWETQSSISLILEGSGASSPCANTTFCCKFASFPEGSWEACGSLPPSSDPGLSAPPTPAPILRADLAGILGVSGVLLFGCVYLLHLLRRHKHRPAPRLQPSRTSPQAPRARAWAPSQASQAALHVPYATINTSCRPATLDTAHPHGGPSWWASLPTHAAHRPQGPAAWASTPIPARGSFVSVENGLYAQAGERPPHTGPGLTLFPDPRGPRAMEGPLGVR
Experimental: as §1

[5] = target: Biotin-labeled mouse PVRIG protein with Mouse IgG2a Fc tag (mouse); assay: competition ELISA: biotin mouse PVRIG-mouse IgG2a Fc binding to coated mouse CD112-his
Experimental: The coating solution in the ELISA plate was discarded, and the ELISA plate was washed three times with 1×PBST and was blocked with 5% BSA/PBS at 200 μL/well for 2 hours at room temperature. […] The SA-HRP dilution was discarded, the ELISA plate was washed three times with 1×PBST, ELISA Chromogen Solution was added at 100 μL/well and incubated for 1-3 minutes at room temperature, ELISA stopping solution was added at 50 μL/well and the absorbance values were read at 450 nm.

[6] = target: T6, mouse PVRIG overexpressed on CHO cells (mouse, UniProt A0A1B0GS01 1-234); assay: flow cytometry, CHO-muPVRIG cells
T6 construct: also called CHO-muPVRIG cells
T6 sequence: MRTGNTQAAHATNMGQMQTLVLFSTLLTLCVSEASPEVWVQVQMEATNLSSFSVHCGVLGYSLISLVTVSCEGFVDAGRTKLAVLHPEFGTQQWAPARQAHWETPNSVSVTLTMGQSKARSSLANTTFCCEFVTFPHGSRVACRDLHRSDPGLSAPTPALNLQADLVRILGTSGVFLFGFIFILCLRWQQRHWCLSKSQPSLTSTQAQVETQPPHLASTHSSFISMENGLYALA
Experimental: as §1

[7] = target: T7, cynomolgus monkey PVRIG-Fc protein (cynomolgus monkey, UniProt Q6DKI7 41-171 (human entry), limits assumed); assay: BLI (ForteBio), antibody on AHQ sensor, 100 nM Fc antigen, bivalent, 1:1 model
T7 construct: no signal peptide limits stated; Bivalent antigen; also called Cynomolgus PVRIG-hFc; not shown: human Fc (hFc)
T7 chain: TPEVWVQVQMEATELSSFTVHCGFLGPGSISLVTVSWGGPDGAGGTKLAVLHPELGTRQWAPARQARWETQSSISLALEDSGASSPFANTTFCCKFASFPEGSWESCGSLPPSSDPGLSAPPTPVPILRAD
Experimental: as §2, with “antibody-loaded sensor was continued to be loaded in a high concentration of irrelevant intact antibody for 10 min, saturating the Fc-binding site on the AHQ sensor. The saturated” for “antibody-loaded”

B1: anti-PVRIG monoclonal antibody ADI-56127 (antibody, V domains shown)
VH: QVQLVQSGAEVKKPGSSVKVSCKASGGTESVDAISWVRQAPGQGLEWMGDIIPFFDTDYAQKFQGRVTITADESTSTAYMELSSLRSEDTAVYYCAREGGTSWTHFFDLWGRGTLVTVSS
VL: not shown
binding result [1]: no binding (tested: 100 nM) | EC50 [2]: 0.844 nM | Kd (human PVRIG-his protein): 0.144 nM | IC50 [3]: 1.06 nM | EC50 [4]: 2.54 nM | IC50 [5]: 0.261 nM | EC50 [6]: 3.35 nM | Kd [7]: 0.267 nM
